Experimental data taken from publication PMC5922973, “Topoisomerase VI senses and exploits both DNA crossings and bends to facilitate strand passage” (eLife, 2018).

Experiments:
[1] = biological target: the molecule itself; test: FRET or BRET; bulk FRET between Alexa555 and Alexa647 on Cys155 of the two Top6B in the holoenzyme; 200 nM topo VI with 100 uM bp sheared salmon-sperm (short linear) DNA, before and over time after 1 mM AMPPNP; 50 mM potassium glutamate, 20 mM HEPES-KOH pH 7.5, 10 mM MgCl2
[2] = biological target: the molecule itself; test: FRET or BRET; bulk FRET between Alexa555 and Alexa647 on Cys155 of the two Top6B in the holoenzyme; 200 nM topo VI with 100 uM bp supercoiled plasmid DNA, before and over time after 1 mM AMPPNP; 50 mM potassium glutamate, 20 mM HEPES-KOH pH 7.5, 10 mM MgCl2

B1: M. mazei Top6B cyslite-155C, Alexa555/Alexa647-labeled, in the topo VI holoenzyme (enzyme, Methanosarcina mazei)
chain: METPIAEELAKKQKSISVAEFFEKNRQILGFDSAPRSLITTVKEAVDNALDACEEAGILPDILVQVERTGPDYVTVIIEDNGPGIVREQIPKVFAKLLYGSRFHALKQSRGQQGIGISAAVLYAQMTAGRHTKILSKTSPTAPAHYYELMINTSCNEPDILVDEVRDWFRPHGTQIELEMRAAYVKGRRQSIYEYLKATAIVNPHARITLIDPDGNEEVFERATDKMPEPAEEILPHPEGIELGTLMKMLHYTERQKLAPFLRYSFSKIGLLTAEEIAKAAGLDPEIDPHALGRHEARKLIEAFEKVKIMAPPTDALSPIGEDLIYRGLEKETTVDFIATSTRKPAVYSGNPFVVEVGMAYGGNLPKEEKISIMRFANRVPLLYQQGGCVTTHAVEDIKWKQYGLNQPGGGIPVGPVILLIHVASINVPFTSESKDAIADIPVIKEEIDLAIKEVARKLKHYLSKQSNLKKRREKEIIITKVLPKLAAKVAHVLEKDVPDINPVVAKIMGNLLVHRVIKNNGDGTVDVAIKVKNFGTSAYSFRVHEMLPAKVSGAKPEPKVVTMGNDYDYVWDISASAGSSKVLSYKIESASEEELQKLPQLIVEGIEEELVTGAKAFKGV
modifications: Alexa Fluor 555 C2 maleimide or Alexa Fluor 647 C2 maleimide on Cys155
notes: Top6B of Methanosarcina mazei topo VI, 'cys-lite' with Thr155 changed to cysteine; Stood in the assay as part of the A2B2 holoenzyme with Top6A; population is a mix of donor-acceptor (50%), acceptor-acceptor (25%) and donor-donor (25%) labeled enzymes; also called topo VI^cyslite-155C; TopoVI^cyslite-155C; not shown: His6, N-terminal, cleaved
B1: binds [1].

B2: M. mazei Top6B KGRR^AAA cyslite-155C, Alexa555/Alexa647-labeled, in the topo VI holoenzyme (enzyme, Methanosarcina mazei)
chain: METPIAEELAKKQKSISVAEFFEKNRQILGFDSAPRSLITTVKEAVDNALDACEEAGILPDILVQVERTGPDYVTVIIEDNGPGIVREQIPKVFAKLLYGSRFHALKQSRGQQGIGISAAVLYAQMTAGRHTKILSKTSPTAPAHYYELMINTSCNEPDILVDEVRDWFRPHGTQIELEMRAAYVAGAAQSIYEYLKATAIVNPHARITLIDPDGNEEVFERATDKMPEPAEEILPHPEGIELGTLMKMLHYTERQKLAPFLRYSFSKIGLLTAEEIAKAAGLDPEIDPHALGRHEARKLIEAFEKVKIMAPPTDALSPIGEDLIYRGLEKETTVDFIATSTRKPAVYSGNPFVVEVGMAYGGNLPKEEKISIMRFANRVPLLYQQGGCVTTHAVEDIKWKQYGLNQPGGGIPVGPVILLIHVASINVPFTSESKDAIADIPVIKEEIDLAIKEVARKLKHYLSKQSNLKKRREKEIIITKVLPKLAAKVAHVLEKDVPDINPVVAKIMGNLLVHRVIKNNGDGTVDVAIKVKNFGTSAYSFRVHEMLPAKVSGAKPEPKVVTMGNDYDYVWDISASAGSSKVLSYKIESASEEELQKLPQLIVEGIEEELVTGAKAFKGV
modifications: Alexa Fluor 555 C2 maleimide or Alexa Fluor 647 C2 maleimide on Cys155
notes: Top6B of Methanosarcina mazei topo VI, cyslite-155C with the KGRR^AAA mutations; Stood in the assay as part of the A2B2 holoenzyme with Top6A; also called Top6AB-KGRR^AAA cyslite-155C; KGRR^AAA FRET assay construct; not shown: His6, N-terminal, cleaved
B2: binds [2].

B3: M. mazei Top6B H2TH^AAA cyslite-155C, Alexa555/Alexa647-labeled, in the topo VI holoenzyme (enzyme, Methanosarcina mazei)
chain: METPIAEELAKKQKSISVAEFFEKNRQILGFDSAPRSLITTVKEAVDNALDACEEAGILPDILVQVERTGPDYVTVIIEDNGPGIVREQIPKVFAKLLYGSRFHALKQSRGQQGIGISAAVLYAQMTAGRHTKILSKTSPTAPAHYYELMINTSCNEPDILVDEVRDWFRPHGTQIELEMRAAYVKGRRQSIYEYLKATAIVNPHARITLIDPDGNEEVFERATDKMPEPAEEILPHPEGIELGTLMKMLHYTERQKLAPFLAYSFSAIGLLTAEEIAKAAGLDPEIDPHALGRHEARKLIEAFEKVAIMAPPTDALSPIGEDLIYRGLEKETTVDFIATSTRKPAVYSGNPFVVEVGMAYGGNLPKEEKISIMRFANRVPLLYQQGGCVTTHAVEDIKWKQYGLNQPGGGIPVGPVILLIHVASINVPFTSESKDAIADIPVIKEEIDLAIKEVARKLKHYLSKQSNLKKRREKEIIITKVLPKLAAKVAHVLEKDVPDINPVVAKIMGNLLVHRVIKNNGDGTVDVAIKVKNFGTSAYSFRVHEMLPAKVSGAKPEPKVVTMGNDYDYVWDISASAGSSKVLSYKIESASEEELQKLPQLIVEGIEEELVTGAKAFKGV
modifications: Alexa Fluor 555 C2 maleimide or Alexa Fluor 647 C2 maleimide on Cys155
notes: Top6B of Methanosarcina mazei topo VI, cyslite-155C with the H2TH^AAA mutations; Stood in the assay as part of the A2B2 holoenzyme with Top6A; also called Top6AB-H2TH^AAA cyslite-155C; not shown: His6, N-terminal, cleaved
B3: binds [2].
